For the test, the target named is reconstituted elongation complex (EC): His-tagged E. coli RNAP core complex on template DNA, non-template DNA and RNA transcript (E. coli).

The record followed here is publication PMC9177983.

NusG, sequence (P0AFG0 whole entry): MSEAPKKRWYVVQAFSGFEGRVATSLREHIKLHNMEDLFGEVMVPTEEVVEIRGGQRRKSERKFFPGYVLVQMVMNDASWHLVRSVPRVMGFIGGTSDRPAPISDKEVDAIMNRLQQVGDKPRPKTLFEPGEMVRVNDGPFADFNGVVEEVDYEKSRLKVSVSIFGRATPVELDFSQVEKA

Regarding “NusG (from UniProt P0AFG0 1-181) (natural protein)”, the smFRET of surface-immobilised ECs with 500 nM NusG, no nucleotide: percentage of dynamic ECs in the high-mid and high-low FRET regimes (23% for EC alone) was 33%.
